Source: patent US20090098076A1, “Method For the Production of a Keratin-Binding Effector Molecule” (BASF SE, priority 2005, published 2009)

How the values were obtained:
[1] = target: human skin keratin (human); test: quantitative skin binding test (human keratinocytes in microtiter plates), anti-His antibody, TMB; after 10% strength SDS treatment; conditions: scale: absorption at 405 nm, standardized to the surface
[2] = target: human hair keratin (human hair, cut into 5 mm sections) (human); test: quantitative hair binding test, loss relative to untreated hair after 10% strength SDS treatment
[3] = test system: skin keratin; test: Qualitative binding to skin (adhesive tape keratin layer, Examples 8 and 14); conditions: transparent adhesive tape with human skin keratin layer; negative control buffer only
Protocol: A visual qualitative test was developed in order to examine whether KBD binds to skin.
Blocking solution: Western Blocking Reagent 1921673 Roche (10× solution) diluted in TBS.
TBS: 20 mM Tris; 150 mM NaCl pH 7.5
The first step is the transfer of the outer keratin layer of the skin to a stable support. For this purpose, a transparent adhesive tape is firmly applied to depilated human skin and removed again. The test can be carried out directly on the transparent adhesive strip, or the adhering keratin layer can be transferred to a glass slide through renewed adhesion.
A visual qualitative test was used in order to examine whether the KBD-D (SEQ ID No.: 168) binds to skin.
Blocking solution: Western Blocking Reagent 1921673 Roche (10× solution) diluted in TBS
A blue colored precipitate, being a reaction of the antipolyhistidine-AP conjugate interacting with the KBD-D, was visible on the transparent adhesive tape treated with KBD-D. As negative control, a transparent adhesive tape was treated only with buffer. No significant blue coloration could be seen here.

[4] = test system: hair (human); test: Quantitative binding to hair (Example 15)
Protocol: (§1) In order to investigate the binding strength of the KBD-D (SEQ ID No.:168) to skin and hair compared to the KBD-B (SEQ ID No.:166), a quantitative test was carried out. In this test firstly hair was incubated with KBD-B or KBD-D and excess KBD-D or -D was washed off. An antibody-peroxidase conjugate was then coupled via the His/tag of the KBD-B or -D. Nonbound antibody-peroxidase conjugate was washed off again. The bound antibody-peroxidase conjugate can convert a colorless substrate (TMB) into a colored product, which was measured photometrically at 405 nm. The intensity of the absorption indicates the amount of bound KBD-B or -D.
In order to characterize the hair binding of the KBD-D compared to the KBD-B, the following binding assay was carried out:
5 mg of hair (human) were cut into sections 5 mm in length and transferred to Eppendorf vessels (protein low-bind). • addition of 1 ml of ethanol for degreasing • centrifugation, removal of ethanol and washing of the hair with H2O • centrifugation, removal of the supernatant • addition of the keratin-binding domains to be tested (coupled to tag—e.g. His6, HA etc.) in 1 ml of PBS/0.05% Tween 20; incubation for 2 h at room temperature with gentle swinging movements • centrifugation, removal of the supernatant • 3× washing with PBS/0.05% Tween 20 • incubation with 1 ml monoclonal mouse anti-tag-(His6 or HA) antibodies with peroxidase conjugate (1:2000 in PBS/0.05% Tween 20) [Monoclonal AntipolyHistidine Peroxidase Conjugate, produced in mouse, lyophilized powder, Sigma] for 2-4 h at room temperature, gentle swinging movement • 3× washing with PBS/0.05% Tween 20 • addition of peroxidase substrate (1 ml/Eppendorf vessel) • allow reaction to proceed until blue coloration (90 seconds). • stop the reaction with 100 μl of 2 M H2SO4.
The absorption was measured at 405 nm
(§2) Peroxidase Substrate (Prepared Shortly Beforehand):
0.1 ml TMB solution (42 mM TMB in DMSO) +10 ml substrate buffer (0.1 M sodium acetate pH 4.9) +14.7 μl H2O2 3% strength BSA=bovine serum albumin PBS=phosphate buffered salt solution Tween 20=polyoxyethylene sorbitan monolaureate, n about 20 TMB=3,5,3′,5′-tetramethylbenzidine

[5] = target: human hair keratin (human hair, cut into 5 mm sections) (human); test: quantitative hair binding test, anti-polyHis peroxidase conjugate, TMB; conditions: scale: absorption at 405 nm, standardized to the surface
[6] = target: human skin keratin (human); test: quantitative skin binding test (human keratinocytes in microtiter plates), anti-His antibody, TMB; conditions: scale: absorption at 405 nm, standardized to the surface
[7] = target: human hair keratin (human hair, cut into 5 mm sections) (human); test: quantitative hair binding test, anti-polyHis peroxidase conjugate, TMB; after 10% strength SDS treatment; conditions: scale: absorption at 405 nm, standardized to the surface
[8] = test system: human keratinocytes; test: Quantitative binding to skin (Example 15)
Protocol: as §1
The test for binding to skin was carried out with human keratinocytes in microtiter plates as follows. • 2× washing with PBS/0.05% Tween 20 • addition of 1 ml of 1% BSA in PBS and incubation for 1 h at room temperature, gentle swinging movements (900 rpm). • removal of the supernatant • addition of 100 μg of KBD in PBS with 0.03% Tween 20; incubation for 2 h at room temperature and gentle swinging movements (900 rpm). • removal of the supernatant • 3× washing with PBS/0.05% Tween 20 • incubation with 1 ml of monoclonal mouse anti-tag-His6 antibodies for 2-4 h at room temperature, gentle swinging movement (900 rpm) • 3× washing with PBS/0.05% Tween 20 • addition of peroxidase substrate (1 ml/Eppendorf vessels composition see below) reaction until a blue coloration (about 90 seconds). • reaction stopped with 100 μl of 2 M H2SO4. • the absorption was measured at 405 nm.
as §2
0.1 ml TMB solution (42 mM TMB in DMSO) +10 ml substrate buffer (0.1 M sodium acetate pH 4.9) +14.7 μl H2O2 3% strength

[9] = target: human skin keratin (human); test: quantitative skin binding test, loss relative to untreated skin after 10% strength SDS treatment
[10] = values standardized to the surface, after 10% strength SDS treatment
[11] = values standardized to the surface, no SDS treatment

B1: KBD-D (keratin-binding domain of human plakophilin) with N-terminal histidine anchor (SEQ ID No.: 168) (protein)
chain: MRGSHHHHHHGSACELGTMNHSPLKTALAYECFQDQDNSTLALPSDQKMKTGTSGRQRVQEQVMMTVKRQKSKSSQSSTLSHSNRGSMYDGLADNYNYGTTSRSSYYSKFQAGNGSWGYPIYNGTLKREPDNRRFSSYSQMENWSRHYPRGSCNTTGAGSDICFMQKIKASRSEPDLYCDPRGTLRKGTLGSKGQKTTQNRYSFYSTCSGQKAIKKCPVRPPSCASKQDPVYIPPISCNKDLSFGHSRASSKICSEDIECSGLTIPKAVQYLSSQDEKYQAIGAYYIQHTCFQDESAKQQVYQLGGICKLVDLLRSPNQNVQQAAAGALRNLVFRSTTNKLETRRQNGIREAVSLLRRTGNAEIQKQLTGLLWNLSSTDELKEELIADALPVLADRVIIPFSGWCDGNSNMSREVVDPEVFFNATGCLRNLSSADAGRQTMRNYSGLIDSLMAYVQNCVAASRCDDKSVENCMCVLHNLSYRLDAEVPTRYRQLEYNARNAYTEKSSTGCFSNKSDKMMNNNYDCPLPEEETNPKGSGWLYHSDAIRTYLNLMGKSKKDATLEACAGALQNLTASKGLMSSGMSQLIGLKEKGLPQIARLLQSGNSDVVRSGASLLSNMSRHPLLHRVMGNQVFPEVTRLLTSHTGNTSNSEDILSSACYTVRNLMASQPQLAKQYFSSSMLNNIINLCRSSASPKAAEAARLLLSDMWSSKELQGVLRQQGFDRNMLGTLAGANSLRNFTSRF
With B1 the Absorption at 405 nm [1] was 3.15, the Relative absorption loss after 10% strength SDS treatment in % [2] was 30% and the “binding to skin keratin (blue colored precipitate)” value [3] was “has bound to the skin keratin”. For the same molecule, the “Relative absorption loss after 10% strength SDS treatment in %, hair” value ([4]; relative to untreated hair) was 30%, the “binding to hair (in words)” value ([4]; summary of Tab. 10) was “can bind to hair” and the “Absorption at 405 nm, binding to hair after 10% strength SDS treatment” value [4, 10] was 0.62. The “Absorption at 405 nm, binding to hair” value [4, 11] was 0.88, the Absorption at 405 nm [5] was 0.88 and the Absorption at 405 nm [6] was 3.69. The Absorption at 405 nm [7] was 0.62, the “Relative absorption loss after 10% strength SDS treatment in %, skin” value ([8]; relative to untreated skin) was 15% and the “binding to skin compared with hair (in words)” value ([8]; summary of Tab. 10) was “more strongly to skin”. The “Absorption at 405 nm, binding to skin after 10% strength SDS treatment” value [8, 10] was 3.15, the “Absorption at 405 nm, binding to skin” value [8, 11] was 3.69 and the “influence of washing with SDS solution on binding” value ([8]; washing with an up to 10% strength SDS solution, in contrast to KBD-B) was “only more weakly influenced”. The Relative absorption loss after 10% strength SDS treatment in % [9] was 15%.
